Assays:
Test in all cases: Kinase Profiling Assay
Assay type in all cases: biochemical
Settings in all cases: 100 μM
Rsk1 (h) = Rsk1 (h) (Homo sapiens, UniProt Q15418)
Outline: (§1)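 Duplicate wells; [radiolabeled] ATP phosphate onto cationic substrate; filter capture (negatively charged membrane); scintillation count; % of 100% activity control. Selectivity screen of MK2 peptide inhibitors, 266 human kinases.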

Flt4 (h) = Flt4 (h) (Homo sapiens, UniProt P35916)
Outline: as §1

CK1δ (h) = target: T1, CK1δ (h) (Homo sapiens, UniProt P48730)
T1 construct: purchased Millipore
Outline: as §1

Fgr (h) = Fgr (h) (Homo sapiens, UniProt P09769)
Outline: as §1

Rsk3 (h) = Rsk3 (h) (Homo sapiens, UniProt Q15349)
Outline: as §1

MAPK2 (h) = MAPK2 (h) (Homo sapiens, UniProt P28482)
Outline: as §1

Pim-2 (h) = target: T2, Pim-2 (h) (Homo sapiens, UniProt Q9P1W9)
T2 construct: purchased Millipore
Outline: as §1

EphB3 (h) = target: T3, EphB3 (h) (Homo sapiens, UniProt P54753)
T3 sequence (P54753 34-998): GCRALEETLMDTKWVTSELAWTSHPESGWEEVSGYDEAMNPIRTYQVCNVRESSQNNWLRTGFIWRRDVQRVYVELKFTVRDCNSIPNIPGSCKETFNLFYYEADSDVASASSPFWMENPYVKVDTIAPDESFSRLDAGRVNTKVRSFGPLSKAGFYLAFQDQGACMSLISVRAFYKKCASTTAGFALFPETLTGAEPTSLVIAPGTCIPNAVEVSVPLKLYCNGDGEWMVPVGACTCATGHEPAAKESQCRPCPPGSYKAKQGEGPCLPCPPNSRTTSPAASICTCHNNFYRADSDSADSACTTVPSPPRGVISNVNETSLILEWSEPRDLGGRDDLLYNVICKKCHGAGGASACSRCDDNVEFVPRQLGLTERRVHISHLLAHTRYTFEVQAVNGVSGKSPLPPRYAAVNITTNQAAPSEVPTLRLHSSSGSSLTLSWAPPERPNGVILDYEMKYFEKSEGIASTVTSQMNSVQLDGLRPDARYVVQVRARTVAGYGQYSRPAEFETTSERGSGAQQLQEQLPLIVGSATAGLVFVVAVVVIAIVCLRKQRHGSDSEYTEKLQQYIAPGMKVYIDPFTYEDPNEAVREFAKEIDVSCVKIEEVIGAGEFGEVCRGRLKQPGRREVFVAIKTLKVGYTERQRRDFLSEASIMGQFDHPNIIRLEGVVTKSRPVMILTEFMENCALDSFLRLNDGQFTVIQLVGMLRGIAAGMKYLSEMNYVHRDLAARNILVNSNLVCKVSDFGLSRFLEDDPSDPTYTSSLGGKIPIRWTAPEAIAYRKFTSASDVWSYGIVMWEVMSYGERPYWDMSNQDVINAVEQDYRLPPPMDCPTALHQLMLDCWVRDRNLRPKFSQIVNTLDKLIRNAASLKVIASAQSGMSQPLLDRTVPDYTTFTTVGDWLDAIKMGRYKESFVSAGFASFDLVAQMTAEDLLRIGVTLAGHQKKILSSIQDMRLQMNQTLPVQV
Outline: as §1

Mer (h) = target: T4, Mer (h) (Homo sapiens, UniProt Q12866)
T4 sequence (Q12866 21-999): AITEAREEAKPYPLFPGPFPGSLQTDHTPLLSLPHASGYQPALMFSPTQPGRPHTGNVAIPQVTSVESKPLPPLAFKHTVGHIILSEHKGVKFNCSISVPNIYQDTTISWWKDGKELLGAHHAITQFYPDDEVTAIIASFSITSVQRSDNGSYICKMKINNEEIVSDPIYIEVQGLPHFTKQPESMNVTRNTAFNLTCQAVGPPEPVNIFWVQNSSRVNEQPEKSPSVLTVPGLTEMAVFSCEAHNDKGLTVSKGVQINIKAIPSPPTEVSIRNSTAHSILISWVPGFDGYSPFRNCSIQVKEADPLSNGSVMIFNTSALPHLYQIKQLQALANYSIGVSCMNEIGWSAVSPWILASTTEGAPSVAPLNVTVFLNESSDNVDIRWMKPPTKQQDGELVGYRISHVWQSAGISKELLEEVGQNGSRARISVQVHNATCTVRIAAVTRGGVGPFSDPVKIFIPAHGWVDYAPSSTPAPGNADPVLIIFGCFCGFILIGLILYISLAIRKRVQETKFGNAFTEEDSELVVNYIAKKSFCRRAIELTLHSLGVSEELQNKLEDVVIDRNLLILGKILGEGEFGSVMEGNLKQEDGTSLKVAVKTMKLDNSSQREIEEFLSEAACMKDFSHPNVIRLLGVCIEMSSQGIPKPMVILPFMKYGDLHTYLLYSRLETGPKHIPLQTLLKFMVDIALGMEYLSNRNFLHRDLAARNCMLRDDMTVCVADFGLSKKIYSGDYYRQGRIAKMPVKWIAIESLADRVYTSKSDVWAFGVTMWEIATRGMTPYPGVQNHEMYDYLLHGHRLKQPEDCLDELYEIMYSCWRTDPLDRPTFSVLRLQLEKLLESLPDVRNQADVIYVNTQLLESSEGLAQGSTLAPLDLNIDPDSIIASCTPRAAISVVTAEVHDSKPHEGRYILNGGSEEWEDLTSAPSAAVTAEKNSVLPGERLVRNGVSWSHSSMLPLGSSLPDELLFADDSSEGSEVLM
Outline: as §1

Rsk3 (h), sequence (Q15349 whole entry): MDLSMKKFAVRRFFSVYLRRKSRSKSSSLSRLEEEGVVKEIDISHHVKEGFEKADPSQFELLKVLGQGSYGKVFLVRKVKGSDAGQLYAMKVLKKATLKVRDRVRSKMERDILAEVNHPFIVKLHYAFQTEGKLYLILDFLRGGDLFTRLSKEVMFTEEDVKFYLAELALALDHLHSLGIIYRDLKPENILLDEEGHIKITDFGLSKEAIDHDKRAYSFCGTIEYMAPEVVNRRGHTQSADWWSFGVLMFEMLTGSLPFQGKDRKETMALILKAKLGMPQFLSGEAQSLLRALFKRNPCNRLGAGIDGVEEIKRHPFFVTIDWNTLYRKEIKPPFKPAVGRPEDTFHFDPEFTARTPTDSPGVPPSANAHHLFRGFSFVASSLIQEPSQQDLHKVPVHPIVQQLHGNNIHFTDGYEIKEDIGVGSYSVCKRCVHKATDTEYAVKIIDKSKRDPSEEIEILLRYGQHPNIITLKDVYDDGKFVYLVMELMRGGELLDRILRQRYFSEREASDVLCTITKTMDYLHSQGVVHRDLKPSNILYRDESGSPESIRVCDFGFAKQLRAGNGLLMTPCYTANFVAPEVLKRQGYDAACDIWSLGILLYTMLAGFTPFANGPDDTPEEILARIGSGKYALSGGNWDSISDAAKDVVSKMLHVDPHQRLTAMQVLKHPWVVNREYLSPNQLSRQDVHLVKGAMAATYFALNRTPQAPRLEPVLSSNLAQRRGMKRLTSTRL
Rsk1 (h), sequence (Q15418 whole entry): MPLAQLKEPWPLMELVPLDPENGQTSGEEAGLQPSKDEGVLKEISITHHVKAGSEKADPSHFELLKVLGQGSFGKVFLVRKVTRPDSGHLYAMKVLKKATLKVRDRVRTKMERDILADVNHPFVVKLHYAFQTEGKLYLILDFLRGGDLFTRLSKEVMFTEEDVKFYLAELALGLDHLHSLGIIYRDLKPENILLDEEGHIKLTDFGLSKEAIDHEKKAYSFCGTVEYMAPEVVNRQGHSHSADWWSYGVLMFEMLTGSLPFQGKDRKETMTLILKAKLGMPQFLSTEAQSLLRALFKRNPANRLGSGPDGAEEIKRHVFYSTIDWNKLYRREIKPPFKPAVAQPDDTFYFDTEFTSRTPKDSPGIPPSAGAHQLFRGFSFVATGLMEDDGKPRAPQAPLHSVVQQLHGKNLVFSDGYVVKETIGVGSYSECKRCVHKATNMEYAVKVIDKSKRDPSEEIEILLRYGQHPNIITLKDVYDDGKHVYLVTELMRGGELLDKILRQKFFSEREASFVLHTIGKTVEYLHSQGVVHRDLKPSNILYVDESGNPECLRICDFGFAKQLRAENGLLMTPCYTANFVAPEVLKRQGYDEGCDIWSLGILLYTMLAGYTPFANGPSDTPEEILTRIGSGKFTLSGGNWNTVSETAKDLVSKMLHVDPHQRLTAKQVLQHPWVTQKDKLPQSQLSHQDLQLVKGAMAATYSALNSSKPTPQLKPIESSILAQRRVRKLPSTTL
T1 sequence (P48730 whole entry): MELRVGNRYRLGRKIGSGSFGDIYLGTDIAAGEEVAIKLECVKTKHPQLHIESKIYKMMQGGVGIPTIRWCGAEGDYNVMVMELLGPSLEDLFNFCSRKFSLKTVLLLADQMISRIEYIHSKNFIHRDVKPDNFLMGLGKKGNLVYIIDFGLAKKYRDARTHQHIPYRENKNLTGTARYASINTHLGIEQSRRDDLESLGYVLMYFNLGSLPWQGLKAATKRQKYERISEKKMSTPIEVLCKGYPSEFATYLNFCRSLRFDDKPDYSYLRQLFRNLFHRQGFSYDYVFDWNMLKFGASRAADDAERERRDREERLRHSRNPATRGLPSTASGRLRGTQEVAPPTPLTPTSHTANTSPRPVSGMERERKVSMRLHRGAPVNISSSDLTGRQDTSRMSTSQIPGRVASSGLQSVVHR
Flt4 (h), sequence (P35916 25-1363): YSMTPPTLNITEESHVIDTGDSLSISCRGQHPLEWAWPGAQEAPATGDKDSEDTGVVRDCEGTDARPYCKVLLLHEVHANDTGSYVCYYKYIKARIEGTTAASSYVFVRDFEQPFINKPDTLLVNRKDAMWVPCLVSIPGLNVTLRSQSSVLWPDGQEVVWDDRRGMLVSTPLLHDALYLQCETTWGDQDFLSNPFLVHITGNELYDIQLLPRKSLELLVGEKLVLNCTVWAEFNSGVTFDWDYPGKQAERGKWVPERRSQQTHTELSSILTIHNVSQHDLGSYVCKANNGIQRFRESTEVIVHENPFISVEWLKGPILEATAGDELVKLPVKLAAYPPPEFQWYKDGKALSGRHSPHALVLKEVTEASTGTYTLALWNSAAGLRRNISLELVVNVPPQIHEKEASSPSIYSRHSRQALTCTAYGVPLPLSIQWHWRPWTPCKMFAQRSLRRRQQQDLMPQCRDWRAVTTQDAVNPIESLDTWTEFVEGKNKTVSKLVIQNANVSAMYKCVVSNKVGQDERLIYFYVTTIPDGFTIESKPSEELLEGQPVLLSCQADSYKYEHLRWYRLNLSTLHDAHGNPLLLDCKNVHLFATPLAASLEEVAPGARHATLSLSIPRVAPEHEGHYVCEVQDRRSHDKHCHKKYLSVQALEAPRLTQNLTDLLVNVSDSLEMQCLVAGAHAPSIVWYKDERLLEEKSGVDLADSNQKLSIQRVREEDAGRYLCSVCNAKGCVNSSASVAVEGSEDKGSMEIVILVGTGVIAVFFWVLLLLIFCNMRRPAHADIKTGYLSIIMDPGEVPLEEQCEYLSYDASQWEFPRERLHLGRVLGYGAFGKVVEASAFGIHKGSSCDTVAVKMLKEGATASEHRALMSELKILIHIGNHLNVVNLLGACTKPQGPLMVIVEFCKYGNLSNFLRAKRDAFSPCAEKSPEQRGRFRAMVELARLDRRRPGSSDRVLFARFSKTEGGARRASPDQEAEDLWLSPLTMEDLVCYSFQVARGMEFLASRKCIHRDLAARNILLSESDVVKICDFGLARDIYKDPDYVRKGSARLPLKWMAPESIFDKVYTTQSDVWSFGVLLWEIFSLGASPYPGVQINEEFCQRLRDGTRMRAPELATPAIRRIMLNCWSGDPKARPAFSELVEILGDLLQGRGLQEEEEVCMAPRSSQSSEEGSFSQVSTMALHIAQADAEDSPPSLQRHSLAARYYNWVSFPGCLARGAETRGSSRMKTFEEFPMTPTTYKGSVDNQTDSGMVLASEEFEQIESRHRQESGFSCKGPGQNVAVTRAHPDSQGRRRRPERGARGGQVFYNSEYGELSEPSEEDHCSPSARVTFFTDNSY
T2 sequence (Q9P1W9 whole entry): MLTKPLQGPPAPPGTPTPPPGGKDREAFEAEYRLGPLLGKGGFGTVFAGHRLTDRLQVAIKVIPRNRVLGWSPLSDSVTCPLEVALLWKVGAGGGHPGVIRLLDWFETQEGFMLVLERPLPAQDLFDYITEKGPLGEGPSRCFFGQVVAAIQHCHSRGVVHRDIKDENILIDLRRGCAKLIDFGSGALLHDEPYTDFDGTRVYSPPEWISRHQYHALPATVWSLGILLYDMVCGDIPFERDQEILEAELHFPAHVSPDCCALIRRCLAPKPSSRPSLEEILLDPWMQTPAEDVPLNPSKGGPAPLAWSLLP
MAPK2 (h), sequence (P28482 whole entry): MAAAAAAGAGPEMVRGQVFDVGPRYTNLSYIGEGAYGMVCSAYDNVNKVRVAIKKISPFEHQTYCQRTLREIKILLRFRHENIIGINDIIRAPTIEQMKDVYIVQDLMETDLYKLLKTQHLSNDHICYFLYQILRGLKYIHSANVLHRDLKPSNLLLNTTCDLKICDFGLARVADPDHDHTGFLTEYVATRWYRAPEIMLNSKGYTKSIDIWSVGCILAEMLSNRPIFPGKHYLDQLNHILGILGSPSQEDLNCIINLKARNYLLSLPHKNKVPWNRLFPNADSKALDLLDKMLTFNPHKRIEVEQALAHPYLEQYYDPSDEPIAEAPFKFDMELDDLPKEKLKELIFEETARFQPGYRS

Sequence | % activity (Rsk1 (h)) [%] | % activity (Flt4 (h)) [%] | % activity (CK1δ (h)) [%] | % activity (Fgr (h)) [%] | % activity (Rsk3 (h)) [%] | % activity (MAPK2 (h)) [%] | % activity (Pim-2 (h)) [%] | % activity (EphB3 (h)) [%] | % activity (Mer (h)) [%]
FAKLAARLYRKALARQLGVAA [MMI-0300] | 46 | 83 | 92 | 60 | 76 | 98 | 76 | 62 | 52
HRRIKAWLKKIKALARQLGVAA (Mammalian) [MMI-0500] | 34 | 73 | 78 | – | 23 | 60 | 46 | 79 | 17
KAFAKLAARLYRKALARQLGVAA [MMI-0400] | 54 | 89 | 93 | 47 | 71 | 93 | 92 | 47 | 50
YARAAARQARAKALNRQLGVA (Mammalian) [MMI-0200] | – | – | 92 | 71 | – | – | 74 | 128 | 90

— patent publication US10500249B2, “Compositions and methods for preventing or treating diseases, conditions, or processes characterized by aberrant fibroblast proliferation and extracellular matrix deposition” (MOERAE MATRIX, INC., priority 2014, dated 2019)
